Laboratory results as given in US20220289852A1 (ACCELERON PHARMA, published 2022).

Tests used:
Assay in all cases: SPR (Biacore), receptor-Fc captured by anti-Fc antibody, ligand injected
[1] = biological target: T1, activin B (UniProt P09529 293-407)
T1 sequence (looked up): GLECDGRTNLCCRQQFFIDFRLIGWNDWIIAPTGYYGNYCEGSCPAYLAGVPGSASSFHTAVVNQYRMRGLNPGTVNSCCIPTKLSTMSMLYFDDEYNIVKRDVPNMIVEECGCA
Method: (§1) A Biacore™-based binding assay was used to compare ligand binding selectivity of the ActRIIB-Fc:ALK7-Fc heterodimeric complex described above with that of ActRIIB-Fc and ALK7-Fc homodimeric complexes. The ActRIIB-Fc:ALK7-Fc heterodimer, ActRIIB-Fc homodimer, and ALK7-Fc homodimer were independently captured onto the system using an anti-Fc antibody. Ligands were injected and allowed to flow over the captured receptor protein. Results are summarized in the table below, in which ligand off-rates (kd) most indicative of effective ligand traps are denoted by bold text.

[2] = biological target: T2, activin AC (UniProt P08476 311-426; P55103 237-352)
T2 sequence (looked up) 1: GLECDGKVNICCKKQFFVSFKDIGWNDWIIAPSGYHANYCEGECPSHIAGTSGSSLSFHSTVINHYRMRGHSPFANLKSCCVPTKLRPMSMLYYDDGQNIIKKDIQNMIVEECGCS
T2 sequence (looked up) 2: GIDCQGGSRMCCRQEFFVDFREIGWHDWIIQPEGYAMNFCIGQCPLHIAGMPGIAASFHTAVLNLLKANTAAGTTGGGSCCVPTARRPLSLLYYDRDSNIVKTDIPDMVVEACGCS
Method: as §1

[3] = biological target: T3, BMP6 (UniProt P22004 375-513, limits assumed)
T3 sequence (looked up): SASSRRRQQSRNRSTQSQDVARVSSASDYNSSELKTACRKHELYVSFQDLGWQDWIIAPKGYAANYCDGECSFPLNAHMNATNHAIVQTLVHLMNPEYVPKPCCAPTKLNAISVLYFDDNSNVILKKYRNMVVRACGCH
Method: as §1

[4] = biological target: T4, activin A (UniProt P08476 311-426)
T4 sequence (looked up): T2 sequence (looked up) 1
Method: as §1

[5] = biological target: T5, activin C (UniProt P55103 237-352)
T5 sequence (looked up): T2 sequence (looked up) 2
Method: as §1

[6] = biological target: T6, BMP5 (UniProt P22003 317-454, limits assumed)
T6 sequence (looked up): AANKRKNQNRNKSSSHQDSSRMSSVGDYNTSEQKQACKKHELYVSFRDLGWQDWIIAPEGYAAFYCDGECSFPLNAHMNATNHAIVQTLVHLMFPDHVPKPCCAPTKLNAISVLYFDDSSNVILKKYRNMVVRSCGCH
Method: as §1

Kd [1]: 0.008 nM | koff [1]: 0.00016 s⁻¹ | kon [1]: 1.5e+07 M⁻¹ s⁻¹ | Kd [2]: 0.16 nM | koff [2]: 0.0031 s⁻¹ | kon [2]: 2e+07 M⁻¹ s⁻¹ | Kd [3]: 0.16 nM | koff [3]: 0.0039 s⁻¹ | kon [3]: 2.4e+07 M⁻¹ s⁻¹ | Kd [4]: 0.011 nM | koff [4]: 0.00014 s⁻¹ | kon [4]: 1.3e+07 M⁻¹ s⁻¹ | binding result [5]: no binding | Kd [6]: 2.9 nM | koff [6]: 0.075 s⁻¹ | kon [6]: 2.6e+07 M⁻¹ s⁻¹
B1: ActRIIB-Fc homodimer (Fc fusion)
chain: GRGEAETRECIYYNANWELERTNQSGLERCEGEQDKRLHCYASWRNSSGTIELVKKGCWLDDFNCYDRQECVATEENPQVYFCCCEGNFCNERFTHLPEAGGPEVTYEPPPTAPT
notes: also called ActRIIB-Fc homodimeric complex; ActRIIB homodimer; not shown: linker and Fc domain of the homodimer
